This is an account of results in patent US20100081170A1.

As a reminder, the Kd is the concentration at which binding is half-saturated. Higher therefore signals a looser complex. For orientation: EC50 (read off the curve) means the concentration needed to bring the measured effect to its halfway point. Low readings indicate an effect from little substance, high ones a need for much substance.

For experiment [1], the target named is native human CD20 on isolated normal human B cells (human) (UniProt P11836). As to the kind of experiment: Scatchard analysis, unlabeled against 125I-Fab on human B cells, Donor 4.
Experiment [2] addresses C2S mutant of human CD20 (Cys111Ser, Cys220Ser), His-tagged (human) (UniProt P11836). Nature of the experiment: SPR (BIAcore-3000), rituximab Fab immobilised on CM5, C2S-CD20 in 0.1% DDM as analyte, 1:1 model. Background: Surface plasmon resonance follows binding to a sensor surface in real time, without labels.
The target of experiment [3] is native human CD20 on isolated normal human B cells (human) (UniProt P11836). As to the kind of experiment: Scatchard analysis, unlabeled against 125I-Fab on human B cells, Donor 5.
In experiment [4] the target is C2S mutant of human CD20 (Cys111Ser, Cys220Ser), His-tagged (human) (UniProt P11836). As to the kind of experiment: SPR (BIAcore-3000), rituximab Fab immobilised on CM5, affinity purified C2S-CD20 as analyte, 1:1 model.
Experiment [5] deals with His-tagged human CD20 expressed in E. coli (human) (UniProt P11836). As to the kind of experiment: SPR (BIAcore-3000), rituximab Fab immobilised on CM5, CD20 in 0.1% DDM as analyte, 1:1 model.
Experiment [6] deals with human CD20 expressed with the LE leader (LE.CD20), leader and His-tag removed with thrombin (human) (UniProt P11836). As to the kind of experiment: ELISA, CD20 coated on the plate, rituximab titrated, detection with HRP goat anti-human F(ab')2, absorbance 450 nm.
Experiment [7] concerns the target His-tagged human CD20 expressed in E. coli (human) (UniProt P11836). The experiment is described as above.
In experiment [8] the target is human CD20 expressed with the sLE leader (sLE.CD20), leader removed with thrombin (human) (UniProt P11836). The description is as above.
The target of experiment [9] is native human CD20 on isolated normal human B cells (human) (UniProt P11836). Nature of the experiment: Scatchard analysis, unlabeled against 125I-IgG on human B cells, Donor 1.
For experiment [10] the target is unchanged. Nature of the experiment: Scatchard analysis, unlabeled against 125I-IgG on human B cells, Donor 3.
The target in another experiment is Reduced, Reoxidized. Nature of the experiment: ELISA, reduced and re-oxidized CD20 coated on the plate, rituximab titrated, detection with HRP goat anti-human F(ab')2, absorbance 450 nm. In general terms: An ELISA detects its analyte on a solid surface through an enzyme-linked reagent.
In experiment [11] the target is native human CD20 on isolated normal human B cells (human) (UniProt P11836). As to the kind of experiment: Scatchard analysis, unlabeled against 125I-IgG on human B cells, Donor 2.
Experiment [12] addresses His-tagged human CD20 expressed in E. coli (human) (UniProt P11836). Nature of the experiment: SPR (BIAcore-3000), rituximab IgG immobilised on CM5, CD20 in 0.1% DDM as analyte, 1:1 model.

Chain of Reduced, Reoxidized (CD20 polypeptide, as listed by the source): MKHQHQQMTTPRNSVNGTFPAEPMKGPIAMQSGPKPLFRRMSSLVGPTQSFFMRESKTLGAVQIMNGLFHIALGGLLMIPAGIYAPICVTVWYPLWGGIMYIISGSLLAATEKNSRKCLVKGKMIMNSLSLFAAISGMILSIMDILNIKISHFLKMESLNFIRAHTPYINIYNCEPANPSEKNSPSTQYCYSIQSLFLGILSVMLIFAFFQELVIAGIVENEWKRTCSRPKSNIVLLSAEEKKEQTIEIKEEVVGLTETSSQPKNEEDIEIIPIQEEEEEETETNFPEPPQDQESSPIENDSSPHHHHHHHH

Turning to rituximab Fab, the Kd turned out to be 52 nM in [1]; 230 nM in [2]; 63 nM in experiment [3]; 190 nM in [4]; 280 nM in experiment [5]. The Ka was 4.4e+06 M⁻¹ in [2], 5.4e+06 M⁻¹ in experiment [4] and 3.5e+06 M⁻¹ in experiment [5].
Regarding rituximab full length antibody, the EC50 (read off the curve) in experiment [6] amounted to 0.5 nM; in experiment [7], 0.5 nM; in [8], 0.4 nM; with Reduced, Reoxidized it was 50 nM. Further, the Kd in experiment [9] is 0.32 nM; in [10], 1.27 nM; in experiment [11], 0.72 nM. Moreover, the Ka in experiment [12] was determined as 6.6e+06 M⁻¹.
